Here are results for 1 substance from publication PMC9817892.

In assay [1] the target is p63 (UniProt Q9H3D4). Description: co-immunoprecipitation, Western blot. As to conditions: reference: Nur77 wild type; sites S351. (In general: Immunoblotting shows a protein as a band on a membrane.)
The target of assay [2] is p63 (UniProt Q9H3D4). Description: co-immunoprecipitation from metastatic tissue. The note with it: reference: Nur77 wild type; sites S351.

As for Nur77 (from UniProt P22736) Nur77 S351A, the “binding against the reference” value with p63 [1] was “lost”; with p63 [2], “weaker”.
